Here are results for two proteins from publication PMC6749071, “Identification of Lysine Histidine Transporter 2 as an 1-Aminocyclopropane Carboxylic Acid Transporter in Arabidopsis thaliana by Transgenic Complementation Approach” (Frontiers in Plant Science, 2019).

Substrate in this series: NC1(C(=O)O)CC1
Description: two-electrode voltage clamp, inward current in Xenopus oocytes. The class given is cell-based, Arabidopsis thaliana. The settings on record: pH 5.6, -80 mV, room temperature, Michaelis-Menten fit.

B1: LHT2 (Arabidopsis thaliana) (protein)
chain: MGNSEMSASEVAAAKQKNVDDWLPITSSRNAKWWYSAFHNVTAMVGAGVLSLPYAMSNLGWGPGVTIMVMSWIITLYTLWQMVEMHEIVPGKRLDRYHELGQHAFGEKLGLWIVVPQQLIVEVGVDIVYMVTGGASLKKVHQLVCPDCKEIRTTFWIMIFASVHFVISHLPNFNSISIISLAAAVMSLTYSTIAWAASVHKGVHPDVDYSPRASTDVGKVFNFLNALGDVAFAYAGHNVVLEIQATIPSTPEMPSKVPMWRGVIVAYIVVAICYFPVAFLGYYIFGNSVDDNILITLEKPIWLIAMANMFVVIHVIGSYQIFAMPVFDMLETVLVKKMNFNPSFKLRFITRSLYVAFTMIVAICVPFFGGLLGFFGGFAFAPTTYYLPCIMWLVLKKPKRFGLSWTANWFCIIVGVLLTILAPIGGLRTIIINAKTYKFFS
notes: cDNA in pGEM-HE, cRNA injected into Xenopus laevis oocytes
For the protein B1, the K0.5 amounted to 59.1 ± 6.6 mM.

B2: LHT1 (Arabidopsis thaliana) (protein)
chain: MVAQAPHDDHQDDEKLAAARQKEIEDWLPITSSRNAKWWYSAFHNVTAMVGAGVLGLPYAMSQLGWGPGIAVLVLSWVITLYTLWQMVEMHEMVPGKRFDRYHELGQHAFGEKLGLYIVVPQQLIVEIGVCIVYMVTGGKSLKKFHELVCDDCKPIKLTYFIMIFASVHFVLSHLPNFNSISGVSLAAAVMSLSYSTIAWASSASKGVQEDVQYGYKAKTTAGTVFNFFSGLGDVAFAYAGHNVVLEIQATIPSTPEKPSKGPMWRGVIVAYIVVALCYFPVALVGYYIFGNGVEDNILMSLKKPAWLIATANIFVVIHVIGSYQIYAMPVFDMMETLLVKKLNFRPTTTLRFFVRNFYVAATMFVGMTFPFFGGLLAFFGGFAFAPTTYFLPCVIWLAIYKPKKYSLSWWANWVCIVFGLFLMVLSPIGGLRTIVIQAKGYKFYS
notes: as for B1
On to B2, for which the K0.5 is 60.9 ± 8.2 mM.
